These results are taken from PMC9329571, “Regulation of TIA-1 Condensates: Zn2+ and RGG Motifs Promote Nucleic Acid Driven LLPS and Inhibit Irreversible Aggregation”.

To fix the notation:
B1: TIA-1 RRM2,3 (amino acids 93-274), wild type [not stated] / itself (parent)
chain: NHFHVFVGDLSPEITTEDIKAAFAPFGRISDARVVKDMATGKSKGYGFVSFFNKWDAENAIQQMGGQWLGGRQIRTNWATRKPPAPKSTYESNTKQLSYDEVVNQSSPSNCTVYCGGVTSGLTEQLMRQTFSPFGQIMEIRVFPDKGYSFVRFNSHESAAHAIVSVNGTTIEGHVVKCYWGK

The assay covers variants of B1. The experiment in a line: turbidity (A385 nm). As to conditions: with itself; TIA-1:ZnCl2 ratio 1:8; 20 µM protein; 20 mM HEPES, 50 mM NaCl, 1 mM TCEP, pH 6.9, 25°C, within 30 min incubation under shaking; read off a plot.
With chain 1 H4A, the response was determined as 0.072 A.U.
The value for chain 1 H2A H4A was 0.056 A.U.
The figure for chain 1 H2A is 0.058 A.U.
